Assay results published in publication doi:10.1101/333286.

Target: F-actin (polymerized human platelet actin) (human) (UniProt P60709)
Experiment: co-sedimentation

percent of NMY-2 S1 fragment in the pellet with F-actin | Substance
91% | NMY-2(S1)-MLC4-MLC5 complex, NMY-2(S251A) S1 fragment (from UniProt G5EBY3 1-874; Q09510 1-172; Q9XVI9 1-142)
42% | NMY-2(S1)-MLC4-MLC5 complex, NMY-2(R252A) S1 fragment (from UniProt G5EBY3 1-874; Q09510 1-172; Q9XVI9 1-142)
66% | NMY-2(S1)-MLC4-MLC5 complex, wild-type NMY-2 S1 fragment (from UniProt G5EBY3 1-874; Q09510 1-172; Q9XVI9 1-142)
